Measured values: patent publication US12662540B2, “Compositions and methods for inhibition of MICA/B shedding” (DANA-FARBER CANCER INSTITUTE, INC., priority 2017, dated 2026)
Entries after “also recorded” stand apart in the source; their conditions may differ.

Columns and labels:
A375 cells = experiment: NK cell cytotoxicity assay (51Cr release), human NK cells against human tumor cells; type: cell-based
Description: Human NK cells were isolated from fresh leukapheresis blood collars that had been generated by Brigham & Women's Hospital, Boston, from healthy donors. Samples were diluted with an equal volume of PBS and blood mononuclear cells were isolated by Ficoll density gradient centrifugation. Cells were washed with PBS, and NK cells were isolated by negative selection using the Human NK Cell Isolation Kit (130-092-657, Miltenyi Biotech) using an autoMACS system (Miltenyi Biotech). Enriched NK cells (purity of 50-90%) were then incubated with anti-CD56 (PE or APC conjugated) and anti-CD3 (FITC or Pacific Blue conjugated) (Biolegend) and sorted using a BD FACS Aria. Following sorting, NK cell purity was ˜99%. These cells were cultured for twelve hours in complete RPMI media supplemented with 300-1000 U/ml of recombinant human IL-2 (BD Pharmingen).
Target cells were labeled for 1 hour with 100 μCi of ^51[Cr] per 2×10^6 cells in 0.2 ml of media. Subsequently, cells were washed and plated in V-bottom 96-wells plates (5,000 target cells per well). To determine the experimental release, NK cells were added in an equal volume, but at different ratios. To determine maximum and spontaneous release, target cells were mixed with an equal volume of 2% Triton-X100 in PBS or an equal volume of media, respectively. Antibodies were added at a final concentration of 10 μg/ml.
For experiments shown in FIGS. 1E, 10, and 13E antibodies were added at the time of the killing assay. For FIGS. 3A-B, antibodies were added to tumor cells 48 hours prior to labelling with ^51[Cr] to inhibit MICAS shedding. The isotype control antibody for assays with human NK cells was recombinant human IgG1 Fc (BE0096, BioXcell). […] At the end of the incubation period, plates were centrifuged (2000 rpm, 5 minutes), part of the supernatant was collected, mixed with scintillation fluid, and radioactivity was quantified using a MicroBeta2 reader (Perkin Elmer). Specific killing was calculated using the following formula: 100×(Experimental release−Spontaneous release)/(Maximum release−Spontaneous release).

human NK cells [1] = experiment: Intracellular interferon-γ production by NK cells co-cultured with tumor cells; type: cell-based; conditions: co-culture with tumor cells, antibody 10 μg/ml
Description: NK cells were co-cultured for 6 hours at a ratio of 5:1 with tumor cells in the presence of Brefeldin-A (Biolegend). After the incubation time, Fc receptors were blocked, cells stained with NK cell markers, stained further with a dead cell marker (Zombie Yellow, Biolegend), and subsequently processed for intracellular interferon-γ labeling. Briefly, cells were fixed with BD Cytofix/Cytoperm™ Fixation and Permeabilization Solution (BD Pharmingen), permeabilized with Permeabilization Wash Buffer (Biolegend), and stained with APC-conjugated anti-human interferon-γ (4S.B3, Biolegend) or appropriate isotype control. Fluorescence spectra were acquired using a LSR Fortessa flow cytometer and analyzed by FlowJo.

human NK cells [2] = experiment: NK cell RNA-sequencing after co-culture with antibody-pretreated A375 cells; type: cell-based; conditions: 6 hours co-culture; A375 pretreated 48 hours
Description: Human NK cells were isolated from a healthy volunteer to ˜99% purity. These cells were pre-activated with 1,000 U/ml IL-2 overnight. A375 tumor cells were pre-treated with 10 μg/ml of 7C6-hIgG1 or isotype control (BioXcell BE0096) antibodies for 48 hours. Cells were then washed and NK cells were co-cultured with tumor cells for 6 hours in a 5:1 ratio. Subsequently, human NK cells were re-sorted and total RNA isolated with genomic DNA digestion with QIAGEN RNeasy RNA isolation kit (74134). RNA sequencing libraries were generated using the Kapa mRNAseq kit (KapaBiosystems). The libraries were analyzed by Next-Generation Sequencing and pooled barcoded samples were subjected to VIPER analysis. RNA levels were compared for NK cells from co-cultures treated with 7C6-hIgG1 versus isotype control antibodies. A cut-off of at least 1 Log2 fold change was applied to select genes that were differentially expressed. Gene set enrichment analysis (GSEA) was also performed in order to identify relevant molecular pathways for differentially expressed mRNAs.

A2058 melanoma cells = experiment: A2058 metastasis model (NSG mice, human NK cells); type: in vivo
Description: Human NK cell reconstitution of NSG mice was done similar to a previous report (26). Briefly, human NK cells were obtained from fresh blood collars, as described above. Cells were treated overnight with 300 U/ml of recombinant human IL-2 (BD Pharmingen), and 1.5×10^6NK cells were injected intravenously into NSG mice. NK cell survival was supported by intraperitoneal injection of 75,000 U of IL-2 (Peprotech) every other day. Human NK cells survived in NSG mice for approximately one week under these conditions (data not shown) and therefore the last IL-2 injection was given 7 days following NK cell transfer. Furthermore, one day after NK cell inoculation and the first injection of IL-2, NSG mice were also injected intravenously with 1×10^6 A2058 melanoma cells. Two days later, mice were treated with 200 μg 7C6-hIgG1 or isotype control (BioXcell) and again once per week. Mice were bled at multiple time points to measure shed MICA and other serum markers. Euthanasia was performed on day 30 following tumor cell inoculation, lungs were perfused with Indian ink (as described above), fixed in Fekete's solution, and the number of lung metastases was counted. Lungs processed for histology were not perfused but fixed in formalin. Livers were also collected, fixed in formalin solution and the number of metastases was counted, or processed for histology. Following removal of these tissues, mice were fixed in Bouin fixative and processed for necropsy by the Rodent Histopathology Core (Dana-Farber/Harvard Cancer Center). The analysis was performed by a pathologist unaware of the different experimental groups.
Macrophages were depleted by intravenous injection of 0.2 ml clodronate liposomes (Encapsula NanoSciences LLC). In the humanized and B16F10-MICA metastasis models, 0.2 ml of clodronate liposomes or control liposomes were injected i.v. (on the same day of tumor cell inoculation and then once weekly).

Kupffer cells = experiment: Analysis of liver macrophages in humanized metastasis model; type: in vivo, NSG mice; conditions: three weeks after tumor cell inoculation
Description: NSG mice were injected i.v with A2058 cells and treated with 7C6-hgG1 or isotype control antibodies as described above. Three weeks following tumor cell inoculation, mice were euthanized and livers were perfused with PBS through the portal vein. Livers were mechanically dissociated and cell suspensions passed through a 70 □ filter. […] Antibodies used for subsequent labeling were APC-CD45.2, APC-CD45.1, BV785-CD11b, BV421-F4/80, BV650-CD80, PE-CD86, FITC-Ly6C, PE-Cy7-Ly6G, PERCP-Cy5.5-CD16/CD32 and Zombie NIR. Cells were acquired in a Sony Spectral Analyzer and data were analyzed by FlowJo.

human macrophages = experiment: Inhibition of MICA shedding by macrophages; type: cell-based; conditions: acetylated-LDL, 24 hours, antibody 10 μg/ml
Description: PBMC were isolated from a leukapheresis collar obtained from a healthy donor, and monocytes were isolated by adherence to tissue culture plates (2 hour incubation). Non-adherent cells were then washed away and M-CSF was added at 100 ng/ml in RPMI-1640 media supplemented with 10% FBS, Glutamax and Penicillin/Streptomycin. Visual inspection of cell morphology on day 5 confirmed that monocytes had differentiated into macrophages. Macrophages were treated for 24 hours in 96-well plates with different concentrations of acetylated LDL as well as MICA antibodies (10 μg/ml). Shed MICA in supernatants was examined by ELISA (Abcam) and cell surface density of MICA/B was quantified by flow cytometry.

B1: 7C6-hIgG1: recombinant 7C6 with Fc segment replaced by human IgG1 (antibody, V domains shown)
VH: QIQLVQSGPELKKPGETVKVSCKASGYMFTNYAMNWVKQAPEKGLKWMGWINTHTGDPTYADDFKGRIAFSLETSASTAYLQINNLKNEDTATYFCVRTYGNYAMDYWGQGTSVTVSS
VL: DIQMTQTTSSLSASLGDRVTISCSASQDISNYLNWYQQKPDGTVKLLIYDTSILHLGVPSRFSGSGSGTDYSLTISNLEPEDIATYYCQQYSKFPRTFGGGTTLEIK
- NK cell-mediated cytotoxicity against antibody-pretreated A375 cells (A375 cells; A375 treated 48 hours, 4 hour co-culture with human NK cells): triggered stronger NK cell-mediated cytotoxicity than the 7C6-hIgG1-DANA mutant
- NK cell mediated cytotoxicity against human tumor cells (A375 cells; human NK cells, antibody added at time of killing assay (10 μg/ml, 66.7 nM)): enabled strong NK cell mediated killing of human tumor cells; also recorded: exhibit cytotoxicity against A375 cells
- IFNγ (cytokine) production by human NK cells (human NK cells [1]): produced higher levels of IFNγ
- gene expression by human NK cells (human NK cells [2]): upregulated genes associated with NK cell activation and effector functions
- number of lung metastases (A2058 melanoma cells; NSG mice reconstituted with human NK cells, day 30): had fewer lung metastases; also recorded: reduces number of lung metastases in the presence of human NK cells
- activity against liver metastases after macrophage depletion (A2058 melanoma cells; clodronate liposomes, no NK cell reconstitution, 3 weeks): abrogated the therapeutic activity
- number of organs with metastases (metastatic load) (A2058 melanoma cells; day 30): reduced the number of organs with metastases; also recorded: significantly reduced metastatic load in the absence of transferred NK cells
- survival (A2058 melanoma cells; mice reconstituted with human NK cells): significant survival benefit; also recorded: increases the survival of mice
- number of liver metastases (A2058 melanoma cells; with or without NK cell transfer, day 30): substantially reduced the number of liver metastases even without NK cell transfer; also recorded: shows significant therapeutic activity against liver metastases even in the absence of NK cells
- CD80 expression by Kupffer cells (Kupffer cells): higher surface levels of the CD80 activation marker; also recorded: increased expression of CD80 by Kupffer cells
- MICA and MICB surface levels on macrophages (human macrophages): increased MICA and MICB surface levels on macrophages
- MICA shedding by macrophages (human macrophages): inhibited MICA shedding
